Source: PMC546129

Columns and labels:
[1] = target: Gal4-DBD–Vnd, construct A1 (amino acids 3–717) (Drosophila) (UniProt P22808); assay: two-hybrid
[2] = target: Gal4-DBD–Vnd, construct A2 (amino acids 3–613) (Drosophila) (UniProt P22808); assay: two-hybrid

## VP16–Dichaete (pACT-Dichaete) (natural protein)
[1]
  fold reduction of repression (two-hybrid reporter): 6 fold
[2]
  fold alleviation of repression (two-hybrid reporter): 3 to 3.5 fold
